Results as given in US7494645B2, “Lipid phosphate phosphatases and uses thereof for treating neuronal diseases” (Charite Universitaetsmedzin-Berlin, priority 2002, dated 2009).
“Also recorded” adds a separate entry of the source.

Assays:
entorhinal explants = assay: LPA induced neurite retraction in entorhinal explants; format: cell-based, rat; conditions: 100 nmol/l LPA, 10 min
Method: Entorhinal explants from E16 and P0 rat pups were obtained from timed-pregnant Wistar rats and were cultivated as described (N. E. Savaskan (2000) Eur. I. Neurosci 12:1024-1032). In brief, entorhinal cortex was carefully dissected from the hippocampal anlage and the meninges were removed. Explants were gently transferred with a fire-polished Pasteur pipette into 12-well plates and cultivated on baked glass cover slides coated with laminin and poly-L-lysin (25 μg/ml and 10 μg/ml, respectively) in culture medium containing selenium-defined fetal bovine serum [5%] (N. E. Savaskan et al (2000) FASEB J. e-published) (Neurobasal medium plus 25 μg/ml Penicillin/Streptomycin; B-27 supplement). After 24 h, culture medium was exchanged and cultivation was further performed in serum-free Neurobasalmedium for 20 h. Serum-starved explants were treated with 100 nmol/l oleoyl-LPA (5 mmol/l stock solution in ultra-filtrated water) for 10 min or with vehicle (0.9% NaCl) and then fixed in 4% paraformaldehyde for 20 min. For F-actin staining, fixed tissues were incubated with TRITC-phalloidin (0.1 μg/ml, Sigma, Germany) for 40 min, followed by incubation with HOECHST 33258 dye (1:20,000, Sigma, Germany) for 5 min at room temperature. […] Images were taken with a CCD camera on an Olympus BX-50 microscope and quantification was performed using the Meta Morph analysis system (Universal Imaging, PA). […]

[1] = system: N1E-115 mouse neuroblastoma cells; assay: LPA induced neurite retraction and protection in transfected N1E-115 cells; format: cell-based
Description: The rat PRG-1 full length clone was amplified by Marathon PCR (Clontech, USA) from adult rat hippocampus RNA (SEQ ID No. 17). For transfection studies, the full length PRG-1 coding sequence was fused to EGFP (pEGFP-N1 vector Clontech, USA). The PRG-1^His/Lys exchange mutant at the catalytic histidine (His-252) was introduced in the same protein fusion vector by site specific mutagenesis (CAT to AAG).
(§1) N1E-115 mouse neuroblastoma cells (ATCC: CRL-2263) were routinely grown in DMEM medium supplemented with selenium-defined fetal bovine serum (10%). The cells were seeded on baked glass cover slides at a density of 10,000 cells/cm^2. The next day, cells were transfected with the cationic lipids procedure (FuGene6, Roche, Germany) and cultivated for 24 h. Serum-starvation was performed for 20 h in DMEM medium, followed by treatment with 10 μmol/l oleoyl-LPA or vehicle (0.9% sodium chloride) (K. Jalink et al (1993) Cell Growth Differ. 4:247-255). After 10 min, cells were fixed in 4% paraformaldehyde for 20 min at room temperature and further analysis processed as described above. Images were taken with a CCD camera on an Olympus BX-50 microscope. Quantification was performed with the Meta Morph analysis system (University Imaging, PA). For statistical analysis Statview II was used (Abacus, USA). The effects of transfection on cell viability were analysed by MTT assay and propidium iodide staining (Savaskan N. E. et al. (2002) FASEB J. 17:112-114).

PRG-3 mRNA = PRG-3 mRNA in situ hybridization after kainate administration in vivo; set-up: species or system rat; conditions: 10 mg/kg i.p.
Description: For hybridization, we used two antisense oligonucleotides which both gave essentially the same hybridization signal: 5′-GCAGAGGTCTGAATTCTAGTGTCTATCGTTATAGTTCCTTAACAGTGTGGG-3′ (SEQ ID NO. 37) and 5′-CATCCTTCTGTAGTAGCTTTCTGCCTCTGCCTCCACTTCTCTCT-3′ (SEQ ID NO. 38) complementary to rat PRG-3 sequence (SEQ ID NO. 23). The oligonucleotide was synthesized by Metabion (Munich, Germany). The specificity was confirmed by a BLAST GenBank search to rule out cross-hybridization with other genes. We used the protocol as previously described (Brauer et al., 2001, supra).
Six rats, weighing 200-300 g, were weight-paired (±10 g per pair). These animals received a single i.p. injection of kainic acid (10 mg/kg bodyweight; from Ocean Products Int., Canada) freshly dissolved in 0.9% saline. Behavior was then observed constantly for 24 hr via video time lapse recordings. […] Severity of seizures was scored for 4 h after kainate injection using the classification of Zhang et al. […] Nissl-positive undamaged neurons were counted in five coronal brain sections per animal (sections were chosen by unbiased sampling), and the mean number of cells per section were determined such that the value obtained for each rat represents an average total number of neurons counted per section (250 μm by 250 μm square in the middle of the CA1 region). […]

N1E-115 cells [2] = assay: Ecto-phosphatase activity (extracellular LPA degradation) in transfected N1E-115 cells; format: cell-based, mouse
Method: The assay procedures used were adapted from those described in Imai et al. (2000) J. Clin. Endocrinol. Metab 85:3370-3375 and Hooks S. B. et al. (2001) J. Biol. Chem. 276:4611-4621. Briefly, transfected cells were harvested after serum-free cultivation for 20 h by scraping in lysis buffer (containing 20 mmol/l HEPES pH 7.4, 1 mmol/l NaHCO3, 500 μmol/l DTT, 1 mmol/l EGTA) and sonicated with two strokes (Bandolin GM 70, Germany). After centrifugation at 800×g, the supernatant was diluted in lysis buffer and centrifuged at 100,000×g for 1 h. Alternatively, the supernatant was topped on a sucrose step gradient (50% and 5%) and centrifuged at 100,000×g for 1 h (Savaskan, N. E. et al. (2000) Eur. J. Neurosci. 12:1024-1032. The resulting pellet and interphase, respectively, were re-homogenized and centrifuged again at 100,000×g for 1 h. The crude membrane pellet was re-suspended in reaction buffer (50 mmol/l HEPES pH 7,5; 1 mmol/l EGTA) and protein concentration was determined spectroscopically by Bradford protein assay (Amersham, Germany). Assessment of LPA metabolism was performed with exogenous ^3H-oleoeyl-LPA (Perkin Elmer, Germany) measuring ^3H-oleoeyl-glycerol production. […] All fractions of dried plates were scintillation counted and compared with authentic standards (LPA, 1-monoolein, 1,2-monoolein, oleic acid). […]

N1E-115 cells [3] = assay: Cell viability of N1E-115 cells after transfection (MTT assay, propidium iodide staining); format: cell-based, mouse; conditions: 48-72 h after transfection
Method: as §1

[4] = system: hyperphosphorylated tau protein; assay: Tau hyperphosphorylation in neurons overexpressing PRG-1 (cell culture model); format: cell-based
Description: Alzheimer's disease is characterized by intracellular neurofibrillary tangle formation formed by tau-based paired helical filaments (PHF) and by extracellular beta-amyloid plaques. The degree of Alzheimer dementia correlates well with the severity of PHF occurrence. These PHF are formed by hyperphosphorylated tau formation. […] To gain insights into the functional role of PRG-1 in Alzheimer's pathology we used an established cell culture model.

Question: How did the “neurite retraction in embryonic entorhinal explants” value (entorhinal explants; E16 explants (no PRG-1 expression), n=20) turn out when “1- or 2-oleoyl-lysophosphatidic acid [LPA]” was run?
Answer: rapid neurite retraction

Question: What about the “neurite retraction in postnatal entorhinal explants” value (entorhinal explants; P0 explants (express PRG-1), n=22) of the same molecule?
Answer: did not differ significantly from vehicle treated control cultures

Question: And the “LPA-induced growth cone collapse of N1E-115 cells” value ([1]; eGFP-only transfected cells, 10 μmol/l LPA, 10 min)?
Answer: uniformly sensitive

Question: With `C=C(C)[C@H]1CN[C@H](C(=O)O)[C@H]1CC(=O)O` [kainic acid] as the molecule, how does the “PRG-3 mRNA expression in hippocampus” value (PRG-3 mRNA; five days after kainic acid application) read?
Answer: comparable levels to the adult non-treated controls

Question: And the “PRG-3 mRNA expression in hippocampus” value (PRG-3 mRNA; six hours after kainic acid application)?
Answer: rapid PRG-3 repression

B1: PRG-1: plasticity-related gene 1 protein, lipid phosphate phosphatase; rat full length clone expressed by transfection (protein)
chain: MQRAGSSGARGECDISGTGRLRLEQAARLGGRAVHTSPTGGLGARQVAGMSAKERPKGKVIKDSVTLLPCFYFVELPILASSVVSLYFLELTDVFKPVHSGFSCYDRSLSMPYIEPTQEAIPFLMLLSLAFAGPAITIMVGEGILYCCLSKRRNGAGLEPNINAGGCNFNSFLRRAVRFVGVHVVGLCSTALITDIIQLATGYQAPYFLTVCKPMYTSLEGSCKENSYIVEEICSGSDLTVINNGKKSFPSQHATLAAFAAVYVSMYFNSTLTDSSKLLKPLLVFTFIICGIICGLTRITQYKNHPVDVYCGFLIGGGIALYLGLYAVGNFLPSEDSMLQHRDALRSLTDLNQDPSRVLSAKNGSSGDGIAHTEGILNRNHRDASSLTNLKRANADVEIITPRSPMGKESMVTFSNTLPRANTPSVEDPVRRNASIHASMDSARSKQLLTQWKSKNESRKMSLQVMDSEPEGQSPPRSIEMRSSSEPSRVGVNGDHHVPGNQYLKIQPGTVPGCNNSMPAGPRVSIQSRPGSSQLVHIPEETQENISTSPKSSSARAKWLKAAEKTVACNRGNNQPRIMQVIAMSKQQGVLQSSPKNAEGSTVTCTGSIRYKTLTDHEPSGIVRVEAHPENNRPIIQIPSSTEGEGSGSWKWKAPEKSSLRQTYELNDLNRDSESCESLKDSFGSGDRKRKHIDSNEHHHHGITTIRVTPVEGSEIGSETLSVSSSRDSTLRRKGNIILIPERSNSPENTRNIFYKGTSPTRPYKD
Question: B1 was tested. Which “increase in ecto-phosphatase activity compared to eGFP transfection alone” value (N1E-115 cells [2]) did it give?
Answer: 5 fold

Question: What about the “increase of LPA needed to overcome resistance against growth cone collapse” value ([1]; PRG-1 overexpressing N1E-115 cells, LPA dose response) of the same molecule?
Answer: 10 fold

Question: What about the “protection against LPA-induced growth cone collapse / retraction of processes” value ([1]; transfected N1E-115 cells, 10 μmol/l LPA) of the same molecule?
Answer: resistance of N1E-115 cells to LPA-induced growth cone collapse; also recorded: did not prevent CPA-induced retraction of processes

Question: What about the LPA-induced actin-polymerization ([1]; transfected N1E-115 cells, phalloidin staining) of the same molecule?
Answer: prevented LPA-induced actin-polymerization

Question: What about the cell viability (N1E-115 cells [3]) of the same molecule?
Answer: unaffected

Question: What about the “hyperphosphorylated tau and PHF formation” value ([4]; PRG-1 overexpression, tau hyperphosphorylation induced with okadaic acid or LPA) of the same molecule?
Answer: significantly decrease

Question: And the hyperphosphorylated tau protein ([4]; neurons overexpressing PRG-1 vs control transfected cells)?
Answer: significant reduction
